In publication PMC11940065, “Conformational Analyses of the AHD1-UBAN Region of TNIP1 Highlight Key Amino Acids for Interaction with Ubiquitin” (Biomolecules, 2025):
Changes are numbered by the printed parent chain. Names and notes keep the numbering of the source.

B1: AHD1-UBAN E444Q (domain or fragment, human, UniProt Q15025 417-509, looked up)
chain: QRLNKALEEALSIQTPPSSPPTAFGSPQGAGALLRKQELVTQNELLKQQVKIFEEDFQRERSDRERMNEEKEELKKQVEKLQAQVTLSNAQLK
notes: TNIP1 (ABIN1), human, amino acids 417-509 with E444Q; source: E. coli Rosetta2 (DE3), purified (IMAC, SEC)
B2: AHD1-UBAN E425Q (domain or fragment, human, UniProt Q15025 417-509, looked up)
chain: B1 chain with E9Q, Q28E
notes: TNIP1 (ABIN1), human, amino acids 417-509 with E425Q; source: E. coli Rosetta2 (DE3), purified (IMAC, SEC)
B3: AHD1-UBAN E444F (domain or fragment, human, UniProt Q15025 417-509, looked up)
chain: B1 chain with Q28F
notes: TNIP1 (ABIN1), human, amino acids 417-509 with E444F; source: E. coli Rosetta2 (DE3), purified (IMAC, SEC)
B4: WT AHD1-UBAN (TNIP1 417-509) (domain or fragment, human, UniProt Q15025 417-509, looked up)
chain: B1 chain with Q28E
notes: TNIP1 (ABIN1), human, amino acids 417-509, the contiguous AHD1 and UBAN domains with their linker; In pET-28a(+); 15N-labelled for NMR; labelled with RED-tris-NTA dye on the His tag for MST; also called wildtype; ABIN1 AHD1-UBAN; source: E. coli Rosetta2 (DE3), purified (IMAC, SEC)
B5: AHD1-UBAN P436W (domain or fragment, human, UniProt Q15025 417-509, looked up)
chain: B1 chain with P20W, Q28E
notes: TNIP1 (ABIN1), human, amino acids 417-509 with P436W; source: E. coli Rosetta2 (DE3), purified (IMAC, SEC)
B6: AHD1-UBAN E425W (domain or fragment, human, UniProt Q15025 417-509, looked up)
chain: B1 chain with E9W, Q28E
notes: TNIP1 (ABIN1), human, amino acids 417-509 with E425W; source: E. coli Rosetta2 (DE3), purified (IMAC, SEC)

What follows are binders tested against T1, Methionine-1-linked triubiquitin (UniProt P0CG48 1-76; P0CG48 1-76; P0CG48 1-76) (assay: far-UV circular dichroism difference spectra; 1:1 molar mixture, each protein at 10 µM, 50 mM sodium phosphate pH 8.0, room temperature; compared with the mathematical average of the two separate spectra). Details: both partners purified.
T1 construct: ubiquitin, unit 1 of 3, joined head to tail (M1-linked) on one chain; ubiquitin, unit 2 of 3, joined head to tail (M1-linked) on one chain; ubiquitin, unit 3 of 3, joined head to tail (M1-linked) on one chain; also called M1-triUb; M1-linked triubiquitin; source: bacterial production, purified (IMAC, SEC)
T1 sequence (P0CG48 1-228, one chain of several): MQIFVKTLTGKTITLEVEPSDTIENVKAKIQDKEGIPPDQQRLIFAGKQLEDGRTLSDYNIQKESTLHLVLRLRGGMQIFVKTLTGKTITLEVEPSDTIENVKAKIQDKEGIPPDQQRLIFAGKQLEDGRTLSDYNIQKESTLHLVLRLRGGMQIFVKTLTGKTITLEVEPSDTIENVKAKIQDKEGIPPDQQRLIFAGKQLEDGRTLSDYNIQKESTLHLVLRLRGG

| binding result | Binder |
| --- | --- |
| binds | B1 |
| binds | B2 |
| binds | B3 |

These binders were tested against T1, Methionine-1-linked triubiquitin (assay: MST; AHD1-UBAN labelled with RED-tris-NTA 2nd generation dye on its 6x-histidine tag; 16-step 2-fold serial dilution of M1-triUb from 40 µM to 610 pM; standard capillaries, Monolith X, MST power 40%, 23 °C; n = 2). Details: both partners purified.

| Kd [µM] | Binder |
| --- | --- |
| 3.85 ± 0.89 | B4 |
| 8.38 ± 0.77 | B5 |
| 7.41 ± 2.28 | B6 |
